From PMC2636851

Columns and labels:
Mcm10-ID F326A = target: T1, Mcm10-ID F326A (Xenopus laevis, UniProt Q5EAW4 230-427, F326A); experiment: fluorescence anisotropy
T1 sequence: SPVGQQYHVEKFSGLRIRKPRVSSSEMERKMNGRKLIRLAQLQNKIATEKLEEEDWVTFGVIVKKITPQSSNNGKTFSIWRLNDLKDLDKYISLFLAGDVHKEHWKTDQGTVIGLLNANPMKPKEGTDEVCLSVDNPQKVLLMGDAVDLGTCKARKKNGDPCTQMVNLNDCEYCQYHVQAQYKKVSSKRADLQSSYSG

Mcm10-ID K293A = target: T2, Mcm10-ID K293A (Xenopus laevis, UniProt Q5EAW4 230-427, K293A); experiment: fluorescence anisotropy
T2 sequence: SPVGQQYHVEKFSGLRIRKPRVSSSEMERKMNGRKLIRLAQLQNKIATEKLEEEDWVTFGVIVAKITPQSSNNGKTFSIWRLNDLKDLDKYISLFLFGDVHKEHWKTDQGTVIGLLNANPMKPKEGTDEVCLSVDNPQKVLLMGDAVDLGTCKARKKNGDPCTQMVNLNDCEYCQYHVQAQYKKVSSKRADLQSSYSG

Mcm10-ID K412E/K413E = target: T3, Mcm10-ID K412E/K413E (Xenopus laevis, UniProt Q5EAW4 230-427, K412E;K413E); experiment: fluorescence anisotropy
T3 sequence: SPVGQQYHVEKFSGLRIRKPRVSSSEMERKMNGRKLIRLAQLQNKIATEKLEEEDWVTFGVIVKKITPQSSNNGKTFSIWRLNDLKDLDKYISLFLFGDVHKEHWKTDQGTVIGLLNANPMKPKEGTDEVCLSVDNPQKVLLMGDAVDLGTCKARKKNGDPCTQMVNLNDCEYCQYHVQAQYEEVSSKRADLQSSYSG

Mcm10-ID K417E/R418E = target: T4, Mcm10-ID K417E/R418E (Xenopus laevis, UniProt Q5EAW4 230-427, K417E;R418E); experiment: fluorescence anisotropy
T4 sequence: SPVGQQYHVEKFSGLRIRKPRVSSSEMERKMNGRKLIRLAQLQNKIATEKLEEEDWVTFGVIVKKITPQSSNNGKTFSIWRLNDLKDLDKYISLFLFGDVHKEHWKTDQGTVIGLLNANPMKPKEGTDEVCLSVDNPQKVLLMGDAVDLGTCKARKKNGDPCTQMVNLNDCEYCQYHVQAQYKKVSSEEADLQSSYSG

Mcm10-ID K385E/K386E = target: T5, Mcm10-ID K385E/K386E (Xenopus laevis, UniProt Q5EAW4 230-427, K385E;K386E); experiment: fluorescence anisotropy
T5 sequence: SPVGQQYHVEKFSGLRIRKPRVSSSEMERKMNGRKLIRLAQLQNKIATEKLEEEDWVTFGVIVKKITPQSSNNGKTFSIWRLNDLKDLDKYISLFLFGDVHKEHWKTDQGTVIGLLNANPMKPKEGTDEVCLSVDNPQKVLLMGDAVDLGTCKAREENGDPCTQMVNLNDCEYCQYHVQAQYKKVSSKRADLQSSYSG

Mcm10-ID wild type [1] = target: T6, Mcm10-ID wild type (Xenopus laevis, UniProt Q5EAW4 230-427); experiment: fluorescence anisotropy
T6 sequence: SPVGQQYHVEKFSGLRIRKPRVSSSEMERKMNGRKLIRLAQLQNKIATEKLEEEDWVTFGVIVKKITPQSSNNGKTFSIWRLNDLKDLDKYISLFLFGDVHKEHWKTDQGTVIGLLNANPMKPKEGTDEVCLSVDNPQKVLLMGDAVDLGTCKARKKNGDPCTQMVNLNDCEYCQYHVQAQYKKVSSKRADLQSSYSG

Mcm10-ID wild type [2] = target: T6, Mcm10-ID wild type; experiment: NMR

For ATGGTAGGCAACCATGTAGTAGTCA (ssDNA) [25mer ssDNA], the binding result (Mcm10-ID F326A) was “binds”, the binding signal (Mcm10-ID K293A) was 5 fold reduction in affinity vs wild type and the binding result (Mcm10-ID K412E/K413E) was “binds”. The binding result (Mcm10-ID K417E/R418E) was “binds” and the binding signal (Mcm10-ID K385E/K386E) was 10 fold reduction in affinity vs wild type.

ATGGTAGGCA (ssDNA) [10mer from 5' end of 25mer]: binds (Mcm10-ID wild type [1]).

GGCGCATTGTCGCAA (ssDNA) [15mer ssDNA (NMR)]: binds (Mcm10-ID wild type [2]).
